# From paper doi:10.1101/536094 (bioRxiv, 2019)
# Values joined by “and” are separate entries in the source; they are usually repeats but may differ in a detail not shown here. Equal entries are not always repeated.
# Experiments:
# [1] = target: Chlamydomonas reinhardtii CaMKII hub domain (Chlamydomonas reinhardtii); experiment: native MS
# [2] = target: Chlamydomonas reinhardtii CaMKII hub domain (Chlamydomonas reinhardtii); experiment: crystal structure
# [3] = target: Gonium pectoral CaMKII hub domain (Gonium pectoral); experiment: native MS
# [4] = target: Volvox carteri f. nagarensis CaMKII hub domain (Volvox carteri f. nagarensis); experiment: native MS
# [5] = target: the molecule itself; experiment: native MS
# [6] = target: the molecule itself; experiment: crystal structure
molecule,measurement,setting,value
Chlamydomonas reinhardtii CaMKII hub domain (domain or fragment),stoichiometry N,[1],18 subunits
same,stoichiometry N,[2],18 subunits
Gonium pectoral CaMKII hub domain (domain or fragment),stoichiometry N,[3],16 subunits and 18 subunits
Volvox carteri f. nagarensis CaMKII hub domain (domain or fragment),stoichiometry N,[4],18 subunits and 20 subunits
"wild-type human CaMKII-α hub domain (domain or fragment, UniProt Q9UQM7 345-475, looked up) VRKQEIIKVTEQLIEAISNGDFESYTKMCDPGMTAFEPEALGNLVEGLDFHRFYFENLWSRNSKPVHTTILNPHIHLMGDESACIAYIRITQYLDAGGIPRTAQSEETRVWHRRDGKWQIVHFHRSGAPSV",stoichiometry N,[5],12 subunits and 14 subunits
"six-mutant human CaMKII-α hub domain (domain or fragment, UniProt Q9UQM7 345-475, looked up) VRKQEIIKVNQQLIEAISNGDFESYTKMCDPGMTAFEPEALGNLVEGLDFHRFYFENLWSRNSKPVHNTMLNPHIHLMGDESACIAYIRITQYLDAGGIPRTAQSEETRVWHRRDGKWQHVHMHRSGAPSV",stoichiometry N,[6],14 subunits
same,stoichiometry N,[5],16 subunits
